Experimental data: publication PMC4134136 (PLoS ONE, 2014)

Molecular target: the molecule itself
Test: crystal structure; NOD1 CARD and Ub mixed 1:1, 1 mM each, in GF buffer (25 mM sodium phosphate, 25 mM NaCl, 5 mM DTT, pH 7.0); hanging drop, 100 mM PCB, 25% PEG 1500, pH 9.0 (crystals formed at pH ~8.6); 2.90 Å

B1: Caspase Recruitment Domain (CARD) of human NOD1, residues serine 16 to glycine 108 (domain or fragment)
chain: SHPHIQLLKSNRELLVTHIRNTQCLVDNLLKNDYFSAEDAEIVCACPTQPDKVRKILDLVQSKGEEVSEFFLYLLQQLADAYVDLRPWLLEIGLE
modifications: dimethyl-arsenic adduct on the sulfhydryl of Cys59 (formed in the crystallization buffer with cacodylate and DTT)
notes: NOD1, human, CARD, residues serine 16 to glycine 108; leucine and glutamic acid inserted between glycine 108 and the 6xHis-tag, from an XhoI restriction site; Purified as a monomer (gel filtration removed residual dimer); in the crystal a homodimer with swapped sixth helices; also called NOD1 CARD; CARD A
- binding result: binds
